The text below walks through data of patent publication US9683988B2, “Cell model and method for screening c-Fms kinase inhibitors” (Institute of Pharmacology and Toxicology Academy of …, priority 2011, dated 2017).

In assay [1] the target is T1, c-Fms kinase in the U2OS-GFP-STAT1/CSF-1R cells (Homo sapiens, UniProt P07333).
T1 construct: comprising full-length cDNA of human c-Fms; expressed in transfected cells; host or cells: human osteosarcoma U2OS cells stably expressing GFP-STAT1 (U2OS-GFP-STAT1/CSF-1R)
T1 sequence (P07333 20-972): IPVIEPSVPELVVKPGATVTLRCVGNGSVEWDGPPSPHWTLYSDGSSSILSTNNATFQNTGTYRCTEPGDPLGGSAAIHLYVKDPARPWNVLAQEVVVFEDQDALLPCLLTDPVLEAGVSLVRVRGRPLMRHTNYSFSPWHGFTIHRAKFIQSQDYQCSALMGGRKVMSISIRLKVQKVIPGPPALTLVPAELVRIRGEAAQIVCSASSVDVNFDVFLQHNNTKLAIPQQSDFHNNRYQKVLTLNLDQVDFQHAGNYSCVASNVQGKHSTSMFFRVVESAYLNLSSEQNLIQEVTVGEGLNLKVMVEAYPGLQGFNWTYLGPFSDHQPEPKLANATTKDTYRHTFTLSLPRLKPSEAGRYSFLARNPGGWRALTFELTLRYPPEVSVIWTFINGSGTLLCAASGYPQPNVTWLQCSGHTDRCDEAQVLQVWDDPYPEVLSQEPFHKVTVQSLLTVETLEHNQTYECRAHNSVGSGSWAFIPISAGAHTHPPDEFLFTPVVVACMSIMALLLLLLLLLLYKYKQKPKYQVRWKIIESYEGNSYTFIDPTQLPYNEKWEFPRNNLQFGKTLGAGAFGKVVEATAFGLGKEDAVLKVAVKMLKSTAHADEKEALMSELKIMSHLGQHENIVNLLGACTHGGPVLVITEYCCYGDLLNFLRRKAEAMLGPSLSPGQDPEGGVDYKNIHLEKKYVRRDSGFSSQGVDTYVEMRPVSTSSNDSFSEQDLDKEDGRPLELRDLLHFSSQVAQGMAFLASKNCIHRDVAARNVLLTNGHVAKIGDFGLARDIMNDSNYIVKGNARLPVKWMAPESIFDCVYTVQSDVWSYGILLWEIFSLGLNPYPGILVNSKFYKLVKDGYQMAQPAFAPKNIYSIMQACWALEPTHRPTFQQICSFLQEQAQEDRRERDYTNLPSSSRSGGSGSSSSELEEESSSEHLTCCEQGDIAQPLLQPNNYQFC
In words: Dose-effect of hrM-CSF inducing GFP-STAT1 nuclear translocation in U2OS-GFP-STAT1/CSF-1R cells. The assay is classed as cell-based. As to conditions: 30 minutes. The protocol:
In order to quantitatively detect the extent of nuclear translocation of GFP-STAT1 induced by hrM-CSF, in this Example, in Cell Analyzer 1000 or In Cell Analyzer 2000 was used to obtain the cell image of GFP-STAT1 nuclear translocation. The cell image obtained was analyzed by using Nuclear Trafficking Analysis Module, wherein the translocation index represents the extent of nuclear translocation of GFP-STAT1. Translocation index equals to the ratio of the mean fluorescence intensity of nucleus to the mean fluorescence intensity of cytoplasm of the cells obtained per well. The steps were as follows: • 1) seeding the cells to a 96-well culture plate (which was black and transparent at the bottom), culturing in an incubator at 37° C., 5% CO2, 80% humidity for 24 hours; • 2) washing the cell twice with serum-free DMEM medium that contains 4500 mg/L glucose, 4 mM L-glutamine, 0.2% BSA and 10 mM HEPES (hereafter referred to as cell analytic liquid), wherein the cell analytic liquid was added at 100 μL/well for each time; after that, adding 50 μL cell analytic liquid to each well; • 3) adding the cell analytic liquid that contains hrM-CSF at 50 μL/well, […], and incubating the cells in an incubator at 37° C. for 30 minutes; • 4) fixing the cells with 8% formaldehyde diluted with 1×PBS solution and preheated at 37° C. at 100 μL/well, and placing the plate in dark at room temperature for 20 minutes; • 5) discarding the cell fixation solution, adding 1×PBS solution that contains hoechst33342 at 200 μL/well, placing the plate in dark at room temperature for 30 minutes; • 6) obtaining the cell image by using In Cell Analyzer 1000, analyzing the extent of nuclear translocation of GFP-STAT1 by using Nuclear Trafficking Analysis Module. […]

For assay [2], the target named is T1, c-Fms kinase in the U2OS-GFP-STAT1/CSF-1R cells. Nature of the assay: Effect of the time for treating cells with hrM-CSF on GFP-STAT1 nuclear translocation. It counts as cell-based. The following applies: 200 ng/mL hrM-CSF; 0-60 minutes. The protocol:
The steps were as follows: • 1) using the cells prepared in the example 1 to prepare a cell suspension of 1×10^5 cells/mL, seeding the cells to a 96-well culture plate (which was black and transparent at the bottom) at 100 μL/well; and culturing the cells in an incubator at 37° C., 5% CO2, 80% humidity for 24 hours; • 2) washing the cells twice with the cell analytic liquid at 100 μL/well for each time, discarding the solution, and adding the cell analytic liquid at 50 μL/well; • 3) adding hrM-CSF diluted with the cell analytic liquid every 5 minutes, to obtain a final concentration of 200 ng/mL, setting the cell analytic liquid containing no hrM-CSF as the control, incubating the cells in an incubator at 37° C., and treating the cells with the cytokine for 0, 5, 10, 15, 20, 25, 30, 35, 40, 45, 50, 55, 60 minutes, respectively; • 4) adding the cell fixation solution preheated at 37° C. at 100 μL/well, slightly shaking the culture plate to mix the mixture uniformly, and placing the plate in dark at room temperature for 20 minutes; • 5) discarding the solution, adding 1×PBS solution that contains hoechst33342 at 200 μL/well, and placing the plate in dark at room temperature for 30 minutes; and • 6) obtaining the cell image by using In Cell Analyzer 2000, and analyzing the extent of nuclear translocation of GFP-STAT1 by using Nuclear Trafficking Analysis Module.

B1: hrM-CSF: recombinantly expressed human M-CSF (macrophage colony stimulating factor), ligand activating c-Fms (protein, UniProt P09603 33-554, looked up)
Macrophage colony-stimulating …: EEVSEYCSHMIGSGHLQSLQRLIDSQMETSCQITFEFVDQEQLKDPVCYLKKAFLLVQDIMEDTMRFRDNTPNAIAIVQLQELSLRLKSCFTKDYEEHDKACVRTFYETPLQLLEKVKNVFNETKNLLDKDWNIFSKNCNNSFAECSSQDVVTKPDCNCLYPKAIPSSDPASVSPHQPLAPSMAPVAGLTWEDSEGTEGSSLLPGEQPLHTVDPGSAKQRPPRSTCQSFEPPETPVVKDSTIGGSPQPRPSVGAFNPGMEDILDSAMGTNWVPEEASGEASEIPVPQGTELSPSRPGGGSMQTEPARPSNFLSASSPLPASAKGQQPADVTGTALPRVGPVRPTGQDWNHTPQKTDHPSALLRDPPEPGSPRISSLRPQGLSNPSTLSAQPQLSRSHSSGSVLPLGELEGRRSTRDRRSPAEPEGGPASEGAARPLPRFNSVPLTDTGHERQSEGSFSPQLQESVFHLLVPSVILVLLAVGGLLFYRWRRRSHQEPQRADSPLEQPEGSPLTQDDRQVELPV
Regarding B1, in assay [1], the “concentration of hrM-CSF at which extent of nuclear translocation of GFP-STAT1 reached the maximum” value was 600 ng/mL and the “concentration of hrM-CSF at which nuclear translocation of GFP-STAT1 began” value is on record as 10 ng/mL. For the same molecule, the “median effective concentration (EC50) of hrM-CSF for inducing GFP-STAT1 nuclear translocation” value in assay [1] (n=6) came to 0.0435 ± 0.00368 µg/mL. For the same molecule, the “treatment time at which extent of GFP-STAT1 nuclear translocation reached the maximum” value in assay [2] came out at 30 min.
